From patent US20040109861A1 (MYRIAD GENETICS, published 2004) come the findings set out here.

This assay deals with T1, myc-tagged Tsg101 (residues 1-207) (human, UniProt Q99816 1-207).
T1 construct: range 1-207; Used as Drosophila S2 cell lysate, not purified; The tag is placed N-terminal from the name myc-Tsg101; also called myc-Tsg101(1-207); myc-Tsg101 (1-207)
T1 sequence: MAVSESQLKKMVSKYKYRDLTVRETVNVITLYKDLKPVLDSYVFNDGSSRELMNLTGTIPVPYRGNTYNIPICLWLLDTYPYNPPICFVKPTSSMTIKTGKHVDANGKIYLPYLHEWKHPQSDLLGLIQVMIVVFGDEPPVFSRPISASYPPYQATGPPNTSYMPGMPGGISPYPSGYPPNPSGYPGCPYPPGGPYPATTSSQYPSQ
The assay is described as follows: plate competition assay, competitor of coated GST-p6 for myc-Tsg101(1-207).

B1: p6(1-14) peptide (GAGp6 peptide containing the first 14 amino acid residues) (peptide)
peptide: LQSRPEPTAPPEES
notes: also called first 14 amino acid residues of HIV GAGp6
B1: the binding result is reported as “binds”.
